Laboratory results: patent publication US9168286B2, “Methods and compositions for use in treatment of patients with autoantibody positive disease” (Human Genome Sciences, Inc., priority 2005, dated 2015)

Tests used:
[1] = system: subjects with SLE; settings: human, in vivo
Procedure: 449 subjects with SLE by ACR criteria (Tan et al., Arthritis Rheum. 25:1271-7, (1982); and Hochberg et al., Arthritis Rheum. 40:1725, (1997)), with a history of measurable autoantibodies and SELENA SLEDAI score ≧4 at screening were dosed.
Subjects who completed the 52-week treatment period were given the option to continue the study for a 24-week extension period. […] B-cells were analyzed every 1-2 months by 4-color FACS (CD19, CD20, CD27, CD69, CD38, CD138 and CD45). Serum autoantibody, including anti-dsDNA Ab, Ig isotypes, total protein, and albumin levels were obtained at the same visits. The likelihood ratio chi-squared, Wilcoxon test or t-test was used to analyze the changes in the biological markers.

[2] = system: subjects with RA; assay: Phase 2 clinical trial of belimumab in rheumatoid arthritis: safety; type: in vivo, human
Source text: ACR20 response increased to approximately 40% at Week 48.

Substance: belimumab: an antibody that neutralizes Neutrokine-alpha protein
- safety, including adverse events (AE), AE severity, infections or lab toxicity [1]: No clinically significant differences
- tolerability ([2]; 1, 4, 10 mg/kg, 24 weeks): well tolerated at all doses
- tolerability ([2]; continued treatment in the extension period): well tolerated
